{"source": "patent US11649460B2", "about": "“DNA aptamers, method for inhibiting human galectin-1 and method of treating a mammal in need thereof” (priority 2020, dated 2023)", "molecules": {"B1": {"name": "CTGACACAGCAGGTTGGTGCCAACTAACACCATAAGAATACCCCGCTCCAAATAAGCCCACACGTAAACCCGAGTCGAGCAATCTCGAAAT (nucleic acid)", "DNA": "CTGACACAGCAGGTTGGTGCCAACTAACACCATAAGAATACCCCGCTCCAAATAAGCCCACACGTAAACCCGAGTCGAGCAATCTCGAAAT", "modifications": "chemistry not given here", "notes": "DNA aptamer that recognizes human galectin-1"}}, "key": {"[1]": {"test_system": "MCF-7 human breast adenocarcinoma cell line", "test": "SRB cell proliferation (cytotoxicity) assay, MCF-7", "text": "(§1) The XLSTAT software was used to determine the IC50, TGI and LC50 values using the four-parameter logistic curve equation."}, "[2]": {"test_system": "DU-145 human prostate carcinoma cell line", "test": "SRB cell proliferation (cytotoxicity) assay, DU-145", "text": "as §1"}, "[3]": {"test_system": "HT-29 human colorectal adenocarcinoma", "test": "SRB cell proliferation (cytotoxicity) assay, HT-29", "text": "as §1"}, "[4]": {"molecular_target": "T1, native human galectin-1 (hGal1) (Homo sapiens, UniProt P09382)", "T1 construct": "42; made in house; host or cells: E. coli strain M-15", "T1 sequence (P09382 2-135)": "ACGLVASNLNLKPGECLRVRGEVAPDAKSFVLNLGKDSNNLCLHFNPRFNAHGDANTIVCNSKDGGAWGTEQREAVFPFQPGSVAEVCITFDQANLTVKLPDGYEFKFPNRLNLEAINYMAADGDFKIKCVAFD", "test": "Thermofluor thermal shift assay (TSA), native galectin-1", "assay_type": "binding", "settings": "5 μM protein", "method_in_brief": "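Purified native or alkylated hGal1 (5 μM) was incubated 30 min with increasing aptamer SEQ ID NO.: 4 concentrations in PBS 1× with 5× SYPRO Orange. Samples were heated 25–95 °C at 1 °C/min, and melting temperature was derived from the fluorescence denaturation curves.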"}, "alkylated galectin-1": {"test_system": "alkylated galectin-1", "sequence (P09382 2-135)": "as above", "test": "Thermofluor thermal shift assay (TSA), alkylated galectin-1", "assay_type": "binding, human", "settings": "5 μM protein", "experimental": "In an attempt to screen among the selected aptamers that better interact with hGal1, differential scanning fluorimetry (Termofluor) was used to characterize their binding to its target. Among all the selected aptamers, SEQ ID NO.: 4 seemed to have a more intense effect on hGal1 thermoshift and so was chosen for further analysis. The selected aptamer had its interaction evaluated with native and alkylated galectin-1. […] The respective thermal displacements were evaluated as a function of an increasing concentration of SEQ ID NO.: 4 (FIG. 1).\nThermofluor experiments were performed on an Mx3005 RT-PCR (Agilent Technologies) using the SYPRO® Orange dye (492/610 nm) (Invitrogen) as fluorescent probe. The purified (native and alkylated) protein samples were incubated for 30 min with increasing concentration of the molecules of interest, centrifuged, and submitted to the thermal denaturation assay, totalizing four distinct experiments. In a 96-well plate (Agilent Technologies) 20 μl of the reaction containing 5 μM of each protein in buffer PBS 1× and 5× SYPRO® Orange were heated from 25° C. to 95° C. at a rate of 1° C./min. The experimental result was processed as in the protocol previously described and the melting temperature was obtained using GraphPad Prism software (www.graphpad.com)."}}}
{"molecule": "B1", "values": [{"measurement": "Relative viability (%) of test items", "setting": "[1]; 0.781 µM", "value": 110.4, "unit": "%"}, {"measurement": "Relative viability (%) of test items", "setting": "[1]; 1.562 µM", "value": 96.7, "unit": "%"}, {"measurement": "Relative viability (%) of test items", "setting": "[1]; 3.125 µM", "value": 95.8, "unit": "%"}, {"measurement": "Relative viability (%) of test items", "setting": "[1]; 6.25 µM", "value": 86.2, "unit": "%"}, {"measurement": "Relative viability (%) of test items", "setting": "[1]; 12.5 µM", "value": 72.7, "unit": "%"}, {"measurement": "Relative viability (%) of test items", "setting": "[1]; 25 µM", "value": 60.9, "unit": "%"}, {"measurement": "Relative viability (%) of test items", "setting": "[1]; 50 µM", "value": 43.4, "unit": "%"}, {"measurement": "Relative viability (%) of test items", "setting": "[1]; 100 µM", "value": 0.7, "unit": "%"}, {"measurement": "TGI: Concentration for total inhibition of cell growth", "setting": "[1]; MCF-7", "value": ">100", "unit": "µM"}, {"measurement": "IC50", "setting": "[1]; read-out: IC50: Concentration to inhibit 50% of cell growth, MCF-7", "value": 35.1, "unit": "µM"}, {"measurement": "CC50", "setting": "[1]; read-out: LC50: Concentration for 50% cell death, MCF-7", "value": "> 100", "unit": "µM"}, {"measurement": "Relative viability (%) of test items", "setting": "[2]; 0.781 µM", "value": 109.3, "unit": "%"}, {"measurement": "Relative viability (%) of test items", "setting": "[2]; 1.562 µM", "value": 100.6, "unit": "%"}, {"measurement": "Relative viability (%) of test items", "setting": "[2]; 3.125 µM", "value": 104.7, "unit": "%"}, {"measurement": "Relative viability (%) of test items", "setting": "[2]; 6.25 µM", "value": 109.6, "unit": "%"}, {"measurement": "Relative viability (%) of test items", "setting": "[2]; 12.5 µM", "value": 104.3, "unit": "%"}, {"measurement": "Relative viability (%) of test items", "setting": "[2]; 25 µM", "value": 88.5, "unit": "%"}, {"measurement": "Relative viability (%) of test items", "setting": "[2]; 50 µM", "value": 68.4, "unit": "%"}, {"measurement": "Relative viability (%) of test items", "setting": "[2]; 100 µM", "value": 36.0, "unit": "%"}, {"measurement": "IC50", "setting": "[2]; read-out: IC50: Concentration to inhibit 50% of cell growth, DU-145", "value": 72.6, "unit": "µM"}, {"measurement": "Relative cell viability (%) of test items", "setting": "[3]; 0.781 µM", "value": 93.5, "unit": "%"}, {"measurement": "Relative cell viability (%) of test items", "setting": "[3]; 1.562 µM", "value": 90.7, "unit": "%"}, {"measurement": "Relative cell viability (%) of test items", "setting": "[3]; 3.125 µM", "value": 88.6, "unit": "%"}, {"measurement": "Relative cell viability (%) of test items", "setting": "[3]; 6.25 µM", "value": 74.6, "unit": "%"}, {"measurement": "Relative cell viability (%) of test items", "setting": "[3]; 12.5 µM", "value": 47.4, "unit": "%"}, {"measurement": "Relative cell viability (%) of test items", "setting": "[3]; 25 µM", "value": 5.8, "unit": "%"}, {"measurement": "Relative cell viability (%) of test items", "setting": "[3]; 50 µM", "value": "−84.0", "unit": "%"}, {"measurement": "Relative cell viability (%) of test items", "setting": "[3]; 100 µM", "value": "−61.1", "unit": "%"}, {"measurement": "TGI: Concentration for total inhibition of cell growth", "setting": "[3]; HT-29", "value": 22.932, "unit": "µM"}, {"measurement": "IC50", "setting": "[3]; read-out: IC50: Concentration to inhibit 50% of cell growth, HT-29", "value": 13.5, "unit": "µM"}, {"measurement": "CC50", "setting": "[3]; read-out: LC50: Concentration for 50% cell death, HT-29", "value": 40.9, "unit": "µM"}, {"measurement": "variation of denaturation temperature (Tm) of native hGal1", "setting": "[4]", "value": "greater variation"}, {"measurement": "variation of denaturation temperature (Tm) of native hGal1", "setting": "[4]; listed as SEQ ID NO.: 4", "value": "marked decrease in Tm"}, {"measurement": "temperature variation (Tm) of alkylated galectin-1", "setting": "alkylated galectin-1", "value": "not significant"}]}
